Experimental data from paper PMC5465079.

What was measured:
Test in all cases: SEC; purified enzymes that were not crosslinked, on Superdex 200; native mass estimated from the elution
[1] = biological target: ADHR (Lactobacillus kefiri DSM 20587)
[2] = biological target: SCR1 (Candida parapsilosis CCTCC M203011)
[3] = biological target: SCR3 (Candida parapsilosis CCTCC M203011)
[4] = biological target: wild-type (S)-carbonyl reductase II (Candida parapsilosis CCTCC M203011)

## ADHR (enzyme)
[1]
  stoichiometry N: 4

## SCR1 (enzyme)
[2]
  stoichiometry N: 4

## SCR3 (enzyme)
[3]
  stoichiometry N: 4

## wild-type (S)-carbonyl reductase II (enzyme)
[4]
  stoichiometry N: 4
